Patent US20180238885A1 (INSERM INSITUT NATIONAL DE LA SANTE ET DE LA RECHERCHE …, published 2018)

Biological target: DNMT3A (DNA methyltransferase 3A) (Homo sapiens (Human), UniProt Q9Y6K1 1-912)
Assay: epitope mapping on a membrane of 12-mer DNMT3A peptides, 2 µg GST-ISGF3γ, fluorescence detection
Method: Then, 2 μg of GST-ISGF3γ protein were incubated with the membrane.

DNMT3A (DNA methyltransferase 3A), sequence (Q9Y6K1 whole entry): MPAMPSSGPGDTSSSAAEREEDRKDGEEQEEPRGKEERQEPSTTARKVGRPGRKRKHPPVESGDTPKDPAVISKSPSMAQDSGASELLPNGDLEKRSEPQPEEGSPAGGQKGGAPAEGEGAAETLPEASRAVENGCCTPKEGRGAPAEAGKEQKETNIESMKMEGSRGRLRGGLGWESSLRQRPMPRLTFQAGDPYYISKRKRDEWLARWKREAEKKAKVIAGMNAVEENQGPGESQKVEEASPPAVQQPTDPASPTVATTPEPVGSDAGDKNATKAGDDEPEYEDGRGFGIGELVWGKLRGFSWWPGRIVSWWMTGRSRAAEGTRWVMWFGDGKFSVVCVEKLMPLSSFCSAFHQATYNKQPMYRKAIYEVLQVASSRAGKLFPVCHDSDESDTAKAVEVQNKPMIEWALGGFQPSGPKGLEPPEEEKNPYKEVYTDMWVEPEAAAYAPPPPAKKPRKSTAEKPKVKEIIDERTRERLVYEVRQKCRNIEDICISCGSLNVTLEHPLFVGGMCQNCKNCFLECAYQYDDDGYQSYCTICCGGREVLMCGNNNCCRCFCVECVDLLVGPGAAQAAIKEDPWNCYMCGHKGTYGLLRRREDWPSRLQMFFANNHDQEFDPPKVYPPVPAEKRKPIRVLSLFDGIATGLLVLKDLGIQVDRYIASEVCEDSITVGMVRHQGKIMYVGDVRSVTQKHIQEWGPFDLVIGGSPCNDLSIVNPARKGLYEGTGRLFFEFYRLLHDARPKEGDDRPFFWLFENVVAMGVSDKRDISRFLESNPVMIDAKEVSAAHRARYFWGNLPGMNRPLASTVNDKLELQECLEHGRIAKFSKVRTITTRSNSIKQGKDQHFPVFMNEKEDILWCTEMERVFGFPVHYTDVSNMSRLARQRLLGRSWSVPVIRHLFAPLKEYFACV

binding result: binds
B1: GST-ISGF3γ protein (other)
chain: MASGRARCTRKLRNWVVEQVESGQFPGVCWDDTAKTMFRIPWKHAGKQDFREDQDAAFFKAWAIFKGKYKEGDTGGPAVWKTRLRCALNKSSEFKEVPERGRMDVAEPYKVYQLLPPGIVSGQPGTQKVPSKRQHSSVSSERKEEEDAMQNCTLSPSVLQDSLNNEEEGASGGAVHSDIGSSSSSSSPEPQEVTDTTEAPFQGDQRSLEFLLPPEPDYSLLLTFIYNGRVVGEAQVQSLDCRLVAEPSGSESSMEQVLFPKPGPLEPTQRLLSQLERGILVASNPRGLFVQRLCPIPISWNAPQAPPGPGPHLLPSNECVELFRTAYFCRDLVRYFQGLGPPPKFQVTLNFWEESHGSSHTPQNLITVKMEQAFARYLLEQTPEQQAAILSLV
notes: Recombinant fusion used at 2 µg on the DNMT3A peptide membrane; not shown: GST (glutathione S-transferase) tag
